# Laboratory results taken from US20020098193A1.
# How the values were obtained:
# [1] = biological target: complete murine IgG1 molecule (mouse); experiment: 125I-sFcRn on mIgG1-Sepharose, incubation at pH 6.0 in presence of 500 ug free mIgG1 (937,985 cpm added)
# [2] = biological target: complete murine IgG1 molecule (mouse); experiment: 125I-sFcRn on mIgG1-Sepharose, incubation at pH 7.5 (943,936 cpm added)
# [3] = biological target: complete murine IgG1 molecule (mouse); experiment: 125I-sFcRn on mIgG1-Sepharose, incubation at pH 7.5 (931,302 cpm added)
# [4] = biological target: complete murine IgG1 molecule (mouse); experiment: 125I-sFcRn on mIgG1-Sepharose, incubation at pH 6.0 (913,948 cpm added)
# [5] = biological target: complete murine IgG1 molecule (mouse); experiment: 125I-sFcRn on mIgG1-Sepharose, incubation at pH 7.5 (958,958 cpm added)
# [6] = biological target: complete murine IgG1 molecule (mouse); experiment: 125I-sFcRn on mIgG1-Sepharose, incubation at pH 6.0 (937,685 cpm added)
# [7] = biological target: recombinant soluble mouse FcRn (mouse) (UniProt Q61559); experiment: inhibition of 125I-sFcRn binding to murine IgG1-Sepharose; molar ratio of inhibitor/FcRn given as 1/1000
# [8] = biological target: recombinant soluble mouse FcRn (mouse) (UniProt Q61559); experiment: inhibition of 125I-sFcRn binding to murine IgG1-Sepharose; molar ratio of inhibitor/FcRn given as 1/500
# [9] = biological target: T1, FcRn of neonatal mouse intestine (mouse) (UniProt Q61559); experiment: cell-based or functional assay
# T1 sequence (looked up): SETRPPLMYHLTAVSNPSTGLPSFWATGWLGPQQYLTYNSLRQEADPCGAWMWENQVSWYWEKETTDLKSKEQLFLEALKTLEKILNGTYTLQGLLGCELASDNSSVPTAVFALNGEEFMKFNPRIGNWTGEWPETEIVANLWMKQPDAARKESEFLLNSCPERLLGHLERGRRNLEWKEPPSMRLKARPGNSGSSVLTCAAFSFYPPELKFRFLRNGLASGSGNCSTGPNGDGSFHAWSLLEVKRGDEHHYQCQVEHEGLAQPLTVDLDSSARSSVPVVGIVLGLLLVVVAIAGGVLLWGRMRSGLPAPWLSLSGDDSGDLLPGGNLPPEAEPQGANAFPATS
# T1 sequence (b2m, looked up): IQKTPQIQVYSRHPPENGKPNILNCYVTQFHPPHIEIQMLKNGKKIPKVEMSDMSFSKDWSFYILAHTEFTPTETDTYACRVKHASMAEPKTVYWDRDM
# [10] = biological target: Staphylococcal protein A (Staphylococcal) (UniProt P38507); experiment: direct binding of 125I-Fc-hinge fragments to SpA-agarose, pH 7.5
# [11] = biological target: recombinant soluble mouse FcRn (mouse) (UniProt Q61559); experiment: SPR (BIAcore 2000), FcRn coupled to CM5 chip, Fc-hinge 100-300 nM in flow, pH 6.0
substance,measurement,setting,value
recombinant soluble mouse FcRn (from UniProt Q61559 22-290; P01887 21-119) (receptor),bound radioactivity,[1],70700 cpm
same,bound radioactivity after pH 7.5 wash,[1],26500 cpm
same,bound radioactivity,[2],11600 cpm
same,bound radioactivity after pH 7.5 wash,[2],10300 cpm
same,bound radioactivity,[3],19600 cpm
same,bound radioactivity after pH 7.5 wash,[3],16800 cpm
same,bound radioactivity,[4],271000 cpm
same,bound radioactivity after pH 7.5 wash,[4],42600 cpm
same,bound radioactivity,[5],12300 cpm
same,bound radioactivity after pH 7.5 wash,[5],9470 cpm
same,bound radioactivity,[6],228000 cpm
same,bound radioactivity after pH 7.5 wash,[6],42700 cpm
HQ-310/HN-433 mutant Fc-hinge fragment (from UniProt P01868 98-324),% inhibition,[7],4%
same,% inhibition,[8],0.2%
I253A mutant Fc-hinge fragment (from UniProt P01868 98-324),% inhibition,[7],6.5%
same,% inhibition,[8],2.3%
HQ-310 mutant Fc-hinge fragment,% inhibition,[7],6.1%
same,Inhibition of transmission (%) of radiolabeled mIgG1 across the intestine of neonatal mice,[9],8.9%
same,% inhibition,[8],1.6%
HN-433 mutant Fc-hinge fragment,Inhibition of transmission (%) of radiolabeled mIgG1 across the intestine of neonatal mice,[9],44.4%
H310A and H435A,"SpA binding, % of WT Fc-hinge",[10],9 to 12 % of WT
Fc fragment of murine IgG1 produced by papain digestion (from UniProt P01868 98-324),Inhibition of transmission (%) of radiolabeled mIgG1 across the intestine of neonatal mice,[9],62.5%
bovine serum albumin (from UniProt P02769 25-607),Inhibition of transmission (%) of radiolabeled mIgG1 across the intestine of neonatal mice,[9],8.9%
wild type (WT) Fc-hinge fragment derived from murine IgG1 (from UniProt P01868 98-324),% inhibition,[7],34.1%
same,% inhibition,[8],18.4%
same,Kd,[11],7.44 nM
same,koff,[11],0.00461 s⁻¹
same,kon,[11],620000 M⁻¹ s⁻¹
Fc-hybrid (heterodimer of WT Fc-hinge and HQ-310/HN-433 mutant),Inhibition of transmission (%) of radiolabeled mIgG1 across the intestine of neonatal mice,[9],21.5%
